In paper PMC4552549:

Biological target: TβRII (TGF-β1 receptor) on PBMC (human (endogenous in PBMC)) (UniProt P37173)
Sequence of UniProt P37173 (P37173 23-567): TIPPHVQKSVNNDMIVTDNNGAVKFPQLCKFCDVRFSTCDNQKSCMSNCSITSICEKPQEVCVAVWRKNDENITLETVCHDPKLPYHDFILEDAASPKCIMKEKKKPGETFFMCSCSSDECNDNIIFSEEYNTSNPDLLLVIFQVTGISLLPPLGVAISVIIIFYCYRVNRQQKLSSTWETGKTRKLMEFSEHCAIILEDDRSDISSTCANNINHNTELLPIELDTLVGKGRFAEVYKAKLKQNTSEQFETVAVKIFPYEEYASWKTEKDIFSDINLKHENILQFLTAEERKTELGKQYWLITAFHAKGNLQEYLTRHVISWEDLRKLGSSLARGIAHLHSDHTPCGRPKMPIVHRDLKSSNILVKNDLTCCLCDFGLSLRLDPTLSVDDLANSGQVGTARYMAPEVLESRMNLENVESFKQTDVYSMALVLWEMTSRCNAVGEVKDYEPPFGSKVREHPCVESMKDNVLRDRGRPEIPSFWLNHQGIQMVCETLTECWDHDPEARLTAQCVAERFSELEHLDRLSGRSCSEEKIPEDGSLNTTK

percentage of Tregs (CD4+CD25+Foxp3+, flow cytometry) in PBMC after the peptide at 1 μM, 10 μM and 100 μM (5.43%, 6.67% and 5.90%; untreated 4.94%): 6.67%
Binder: ACESPLKRQCGGGS [pm26TGF-β1 synthetic peptide]
